In assay [1] the target is T1, recombinant fibronectin domain ED-B (His)6 (human, UniProt P02751 1266-1356).
T1 construct: domain: ED-B; Produced by standard procedures; immobilised on ELISA plates or on the BIAcore chip; also called recombinant ED-B; human ED-B
The assay can be described thus: SPR (BIAcore), ED-B immobilised on chip, Fab in flow. Here is the method: (§1) F1-Chips (Biacore, Sweden) were coated with about 200 RU of ED-B (30 μg/ml, 10 mmol of acetate buffer, pH 4.0) and reference flow cells with a corresponding amount of human serum albumin (20 μg/ml, 10 mmol of acetate buffer, pH 4.5) with use of standard EDC-NHS-amine-coupling chemistry. The antigen density was reduced to about 100 RU for the Fab characterization of the second maturation. The regeneration was carried out with 10 mmol of HCl. All kinetic measurements were carried out in PBS buffer (136 mmol of NaCl, 2.7 mmol of KCl, 10 mmol of Na₂HPO₄, 1.76 mmol of KH₂PO₄, pH 7.4) with a flow rate of 20 μl/minute with use of a Fab concentration range of 1.5-500 nmol. The injection period was 1 minute in each case. All sensograms were evaluated with use of BIA evaluation software 3.1.
The properties of twelve selected binding molecules was determined by BIAcore analysis (see Table 1). […] At least two independent measurements with Fab molecules from different batches were performed for protein expression and protein purification. The binding rate (Kₒₙ) and the dissociating-off rate (Koff) of the Fab molecule are indicated in separate columns.
A general note: SPR reads the build-up and loss of mass on a sensor chip optically.

Assay [2] concerns the target T1, recombinant fibronectin domain ED-B …. The assay is described as follows: SPR (BIAcore), ED-B immobilised on chip (about 100 RU), Fab in flow. Here is the method: as §1
For assay [3] the target is unchanged. The assay can be described thus: SPR (BIAcore), ED-B immobilised on chip, Fab in flow. Here is the method: as §1
This is another data set of the same source.

Assay [4] has the same target. The assay is described as follows: SPR (BIAcore); ratio to parent clone MOR02619. Here is the method:
as §1

Where a chain is given by its changes, count along the chain named.

B1: MOR02611 (Fab, V domains shown)
VH: QVQLVQSGAEVKKPGASVKVSCKASGYTFSGSYMHWVRQAPGQGLEWMGIINPASGKTLYAQKFQGRVTMTRDTSISTAYMELSSLRSEDTAVYYCARGLYYRFASWGQGTLVTVSS
VL: DIALTQPASVSGSPGQSITISCTGTSSDIGGYHSVSWYQQHPGKAPKLMIYRSNRPSGVSNRFSGSKSGNTASLTISGLQAEDEADYYCAAATGGWVFGGGTNLTVLG
notes: HuCAL GOLD Fab, VH1B/L2
Turning to B1, in assay [1], the Kd (in general, the free concentration of one partner at which half of the binding sites on the other are occupied at equilibrium, for simple one-to-one binding) amounted to 332 nM; the koff (in general, a measure of how fast the partners let go of each other) was found to be 0.051 s⁻¹; the kon (commonly the rate constant with which the complex forms) is 150000 M⁻¹ s⁻¹.

B2: MOR02613 (Fab, V domains shown)
VH: QVQLVESGGGLVQPGGSLRLSCAASGFTFSNYTMTWVRQAPGKGLEWVSFIIGSGSNTSYADSVKGRFTISRDNSKNTLYLQMNSLRAEDTAVYYCARYVNGFDIWGQGTLVTVSS
VL: DIALTQPASVSGSPGQSITISCTGTSSDVGVYYYVSWYQQHPGKAPKLMIYYDSKRPSGVSNRFSGSKSGNTASLTISGLQAEDEADYYCQTYAKKDYSLVFGGGTKLTVLG
notes: HuCAL GOLD Fab, VH3/L2
Turning to B2, in assay [1], the Kd was 164 nM, the koff turned out to be 0.13 s⁻¹ and the kon is 780000 M⁻¹ s⁻¹.

B3: MOR03243 (Fab, V domains shown)
VH: QVQLQESGPGLVKPGETLSLTCTVSGGSISSYYWSWIRQAPGKGLEWIGEIHRGGYTQYNPSLKSRVTISVDTSKNQFSLKLSSVTAADTAVYYCARFFDVWGQGTLVTVSS
VL: DIVLTQPPSVSGAPGQRVTISCSGSSSNIGSNTVRWYQQLPGTAPKLLIYSNNKRPSGVPDRFSGSKSGTSASLAITGLQSEDEADYYCQAWTRAHRYPVFGGGTKLTVLG
notes: Fab, H-CDR2 derivative of MOR03055
Take B3: in assay [2], the Kd stood at 0.7 nM, the koff is 0.0018 s⁻¹ and the kon amounted to 2.9e+06 M⁻¹ s⁻¹.

B4: MOR03066 (Fab, V domains shown)
VH: QVQLQESGPGLVKPGETLSLTCTVSGGSISSYYWSWIRQAPGKGLEWIGIGHWGSTQYNPSLKGRVTISVDTSKNQFSLKLSSVTAEDTAVYYCARFFDVWGQGTLVTVSS
VL: DIVLTQPPSVSGAPGQRVTISCSGSSSNIGSNTVRWYQQLPGTAPKLLIYSNNKRPSGVPDRFSGSKSGTSASLAITGLQSEDEADYYCSSYDTQVTRVFGGGTKLTVLG
notes: Fab, L-CDR3 derivative of MOR02619
As for B4, in assay [3], the equilibrium dissociation constant (Kd) is 4.2 nM, the koff is 0.0047 s⁻¹ and the kon worked out at 1.1e+06 M⁻¹ s⁻¹. For the same molecule, in assay [4], the “x-Fold Improvement Relative to the Parent Clone, KD” value is 3.8 fold; the “x-Fold Improvement Relative to the Parent Clone, Koff” value was 2.8 fold; the “x-Fold Improvement Relative to the Parent Clone, Kon” value was determined as 1.4 fold.

B5: MOR03075 (Fab, V domains shown)
VH: B4 VH
VL: B4 VL with S90Q, Y92W, T94P, Q95R, V96S, T97F, R98T
notes: as for B4
Consider B5, for which, in assay [3], the dissociation constant Kd worked out at 2.4 nM, the koff came to 0.0026 s⁻¹ and the association rate constant (kon) turned out to be 1.1e+06 M⁻¹ s⁻¹. Also, in assay [4], the “x-Fold Improvement Relative to the Parent Clone, KD” value stood at 6.8 fold; the “x-Fold Improvement Relative to the Parent Clone, Koff” value came out at 5 fold; the “x-Fold Improvement Relative to the Parent Clone, Kon” value amounted to 1.4 fold.

B6: MOR03071 (Fab, V domains shown)
VH: B4 VH
VL: B4 VL with S90L, S91A, D93I, T94Q, Q95S, V96K, T97G, R98H
notes: as for B4
In the case of B6, in assay [3], the Kd was 3.1 nM, the koff turned out to be 0.0057 s⁻¹ and the kon worked out at 1.9e+06 M⁻¹ s⁻¹. For the same molecule, in assay [4], the “x-Fold Improvement Relative to the Parent Clone, KD” value came out at 5.1 fold; the “x-Fold Improvement Relative to the Parent Clone, Koff” value worked out at 2.3 fold; the “x-Fold Improvement Relative to the Parent Clone, Kon” value turned out to be 2.3 fold.

B7: MOR02616 (Fab, V domains shown)
VH: QVQLVESGGGLVQPGGSLRLSCAASGFTFRNNAMHWVRQAPGKGLEWVSAISSSGSGTYYADSVKGRFTISRDNSKNTLYLQMNSLRAEDTAVYYCARVIVLFDYWGQGTLVTVSS
VL: DIVLTQSPATLSLSPGERATLSCRASQNVRSNLAWYQQKPGQAPRLLIYGASNRATGVPARFSGSGSGTDFTLTISSLEPEDFAVYYCLQKYSIPFTFGQGTKVEIKR
notes: HuCAL GOLD Fab, VH3/K3
As for B7, in assay [1], the equilibrium dissociation constant (Kd) turned out to be 59 nM, the koff is 0.028 s⁻¹ and the kon came to 540000 M⁻¹ s⁻¹.

The values above are taken from patent publication US20060115428A1 (MorphoSys, published 2006).
